Measurements taken from patent EP1682577B1.

Assays:
Test in all cases: cell-based or functional assay
CRHR1 = CRHR1 (UniProt P34998)
[1] = biological target: Vasoactive Intestinal Peptide 1 receptor (UniProt P32241)
Melanocortin 5 receptor = Melanocortin 5 receptor (UniProt P33032)
Melanocortin 1 receptor = Melanocortin 1 receptor (UniProt Q01726)
Sequence of Melanocortin 1 receptor (Q01726 whole entry): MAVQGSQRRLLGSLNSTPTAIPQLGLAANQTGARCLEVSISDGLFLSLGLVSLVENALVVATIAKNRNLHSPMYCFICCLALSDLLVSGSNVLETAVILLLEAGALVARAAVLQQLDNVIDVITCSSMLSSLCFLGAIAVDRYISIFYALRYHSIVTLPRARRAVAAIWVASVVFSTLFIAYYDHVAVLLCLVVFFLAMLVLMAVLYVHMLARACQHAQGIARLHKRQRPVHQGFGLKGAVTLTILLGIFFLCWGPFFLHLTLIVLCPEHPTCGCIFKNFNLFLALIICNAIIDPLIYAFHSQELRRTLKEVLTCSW

Sequence of Vasoactive Intestinal Peptide 1 receptor (P32241 31-457): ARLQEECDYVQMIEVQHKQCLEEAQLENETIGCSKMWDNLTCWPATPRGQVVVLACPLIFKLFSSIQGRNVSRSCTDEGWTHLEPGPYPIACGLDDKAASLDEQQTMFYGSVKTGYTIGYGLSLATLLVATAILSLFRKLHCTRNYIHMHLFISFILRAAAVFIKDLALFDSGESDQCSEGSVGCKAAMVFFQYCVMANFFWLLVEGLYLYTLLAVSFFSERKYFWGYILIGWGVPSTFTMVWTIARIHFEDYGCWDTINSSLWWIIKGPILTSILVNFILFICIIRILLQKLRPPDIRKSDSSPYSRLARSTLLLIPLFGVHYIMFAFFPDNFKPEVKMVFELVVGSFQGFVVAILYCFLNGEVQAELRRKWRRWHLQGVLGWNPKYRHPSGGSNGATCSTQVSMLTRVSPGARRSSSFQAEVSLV
Sequence of Melanocortin 5 receptor (P33032 whole entry): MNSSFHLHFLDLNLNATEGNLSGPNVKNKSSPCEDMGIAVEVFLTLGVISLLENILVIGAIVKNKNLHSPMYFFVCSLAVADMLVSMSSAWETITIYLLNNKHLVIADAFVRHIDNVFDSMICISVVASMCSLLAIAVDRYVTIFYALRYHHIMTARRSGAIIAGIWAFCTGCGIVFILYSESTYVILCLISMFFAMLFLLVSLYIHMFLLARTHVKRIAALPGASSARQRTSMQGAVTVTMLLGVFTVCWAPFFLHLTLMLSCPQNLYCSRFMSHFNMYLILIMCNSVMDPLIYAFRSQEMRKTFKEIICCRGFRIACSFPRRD
Sequence of CRHR1 (P34998 24-415 limits assumed): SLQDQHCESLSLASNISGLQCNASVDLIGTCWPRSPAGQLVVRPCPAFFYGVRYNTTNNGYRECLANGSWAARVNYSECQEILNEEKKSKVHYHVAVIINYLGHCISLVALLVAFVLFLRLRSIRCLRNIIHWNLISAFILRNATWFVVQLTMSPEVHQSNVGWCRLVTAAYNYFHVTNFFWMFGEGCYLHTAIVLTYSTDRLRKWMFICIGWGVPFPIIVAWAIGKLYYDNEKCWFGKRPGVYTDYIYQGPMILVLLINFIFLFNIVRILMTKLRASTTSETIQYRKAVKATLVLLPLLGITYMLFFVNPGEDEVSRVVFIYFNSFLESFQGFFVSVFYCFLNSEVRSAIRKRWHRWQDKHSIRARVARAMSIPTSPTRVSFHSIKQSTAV

CRF (from UniProt P06850 154-194) (peptide)
EC50 of cell response (MDC dye) (CRHR1): 0.028 nM | EC50 of cell response (NY & H30602) (CRHR1): 0.028 nM | Fmax/ Fb (MDC dye) (CRHR1): 4.2 | Fmax/ Fb (NY & H30602) (CRHR1): 4.3

VIP (from UniProt P01282 125-152) (peptide)
EC50 of cell response (MDC dye) [1]: 0.0024 nM | EC50 of cell response (TB & H30602) [1]: 0.005 nM | Fmax/ Fb (MDC dye) [1]: 4.9 | Fmax/ Fb (TB & H30602) [1]: 5

[Nle4-D-Phe7]α-MSH (from UniProt P01189 138-150) (peptide)
EC50 of cell response (MDC dye) (Melanocortin 5 receptor): 2900 nM | EC50 of cell response (NR& H30602) (Melanocortin 5 receptor): 1300 nM | EC50 of cell response (NY & H30602) (Melanocortin 5 receptor): 950 nM | Fmax/ Fb (MDC dye) (Melanocortin 5 receptor): 3.6 | Fmax/ Fb (NR& H30602) (Melanocortin 5 receptor): 3.2 | Fmax/ Fb (NY & H30602) (Melanocortin 5 receptor): 3.4

α-MSH (from UniProt P01189 138-150) (peptide)
EC50 of cell response (MDC dye) (Melanocortin 1 receptor): 820 nM | EC50 of cell response (TB & H30602) (Melanocortin 1 receptor): 770 nM | Fmax/ Fb (MDC dye) (Melanocortin 1 receptor): 5 | Fmax/ Fb (TB & H30602) (Melanocortin 1 receptor): 5.1
